Experimental findings from patent publication US20040086528A1 (PROGENICS PHARMACEUTICALS, published 2004) are described below.

Holding throughout (experiment): cell-based or functional assay
Assay [1] addresses wild-type CCR5, HA-tagged at the C-terminus (human, UniProt P51681 1-352).
The next assay has as its target T1, CCR5 K26A, HA-tagged (human, UniProt P51681 1-352).
T1 sequence: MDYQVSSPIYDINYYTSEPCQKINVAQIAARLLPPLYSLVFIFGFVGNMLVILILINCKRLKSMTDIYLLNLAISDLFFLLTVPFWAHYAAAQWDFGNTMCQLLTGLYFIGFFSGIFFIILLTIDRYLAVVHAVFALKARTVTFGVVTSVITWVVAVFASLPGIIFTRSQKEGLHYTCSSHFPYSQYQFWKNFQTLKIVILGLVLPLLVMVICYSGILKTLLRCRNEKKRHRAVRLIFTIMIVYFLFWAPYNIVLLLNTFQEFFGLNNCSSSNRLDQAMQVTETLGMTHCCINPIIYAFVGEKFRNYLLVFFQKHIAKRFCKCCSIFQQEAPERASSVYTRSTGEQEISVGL

The next assay deals with T2, CCR5 R31A, HA-tagged (human, UniProt P51681 1-352).
T2 sequence: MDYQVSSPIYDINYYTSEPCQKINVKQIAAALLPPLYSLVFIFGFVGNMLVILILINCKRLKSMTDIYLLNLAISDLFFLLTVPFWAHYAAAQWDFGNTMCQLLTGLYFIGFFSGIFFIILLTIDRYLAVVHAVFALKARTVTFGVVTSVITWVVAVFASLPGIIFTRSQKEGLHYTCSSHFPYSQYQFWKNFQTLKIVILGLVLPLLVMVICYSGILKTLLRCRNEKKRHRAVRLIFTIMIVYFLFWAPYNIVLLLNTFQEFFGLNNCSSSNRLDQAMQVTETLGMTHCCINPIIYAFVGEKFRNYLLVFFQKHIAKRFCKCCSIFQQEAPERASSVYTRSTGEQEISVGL

The target of a further assay is T3, CCR5 H175A, HA-tagged (human, UniProt P51681 1-352).
T3 sequence: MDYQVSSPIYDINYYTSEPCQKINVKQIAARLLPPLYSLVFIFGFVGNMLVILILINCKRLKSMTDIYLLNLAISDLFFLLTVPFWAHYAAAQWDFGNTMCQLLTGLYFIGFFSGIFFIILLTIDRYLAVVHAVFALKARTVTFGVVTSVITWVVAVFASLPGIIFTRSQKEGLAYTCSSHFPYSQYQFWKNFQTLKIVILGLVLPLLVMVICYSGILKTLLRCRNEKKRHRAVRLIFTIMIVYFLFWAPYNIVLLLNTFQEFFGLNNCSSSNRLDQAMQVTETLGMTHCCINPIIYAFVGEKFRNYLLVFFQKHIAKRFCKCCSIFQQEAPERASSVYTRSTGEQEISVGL

In assay [2] the target is T4, CCR5 R274A/D276A, HA-tagged (human, UniProt P51681 1-352).
T4 sequence: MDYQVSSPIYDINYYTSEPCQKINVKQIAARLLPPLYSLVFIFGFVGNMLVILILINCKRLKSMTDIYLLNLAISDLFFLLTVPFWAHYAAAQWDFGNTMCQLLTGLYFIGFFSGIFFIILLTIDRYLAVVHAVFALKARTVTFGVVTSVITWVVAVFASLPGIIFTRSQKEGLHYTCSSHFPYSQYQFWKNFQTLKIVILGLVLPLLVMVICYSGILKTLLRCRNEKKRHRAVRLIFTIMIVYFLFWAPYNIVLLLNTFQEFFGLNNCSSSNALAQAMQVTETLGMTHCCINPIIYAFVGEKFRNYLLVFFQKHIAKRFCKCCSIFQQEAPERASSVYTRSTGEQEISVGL

B1: macrophage inflammatory protein (MIP)-1β, recombinant human (ligand, UniProt P13236 24-92, looked up)
chain: APMGSDPPTACCFSYTARKLPRNFVVDYYETSSLCSQPAVVFQTKRSKQVCADPSESWVQEYVYDLELN
For B1, the “relative % inhibition of NLluc/JR-FL entry into U87MG-CD4 cells by 2 µg/ml chemokine (wild-type = 100)” value turned out to be 100% in assay [1]; 97% in the assay with CCR5 K26A, HA-tagged; 2% with CCR5 R31A, HA-tagged; 100% with CCR5 H175A, HA-tagged; 36% in assay [2].

B2: RANTES, recombinant human (ligand)
chain: SPYSSDTTPCCFAYIARPLPRAHIKEYFYTSGKCSNPAVVFVTRKNRQVCANPEKKWVREYINSLEMS
Regarding B2, the “relative % inhibition of NLluc/JR-FL entry into U87MG-CD4 cells by 2 µg/ml chemokine (wild-type = 100)” value in assay [1] is 100%; in the assay with CCR5 K26A, HA-tagged, 100%; with CCR5 R31A, HA-tagged, -16%; with CCR5 H175A, HA-tagged it was 95%; in assay [2], 33%.
